Experiment: yeast display, Sf9 membrane polyspecificity reagent, FACS + sequencing; frameworks hold sequencing errors
Method in brief: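 In a synthetic yeast display library (Saccharomyces cerevisiae BJ5465), nanobody expression was induced with galactose for 36–48 hours. FACS gates were set low and high (top ~1%) using anti-HA fluorescence for expression and streptavidin fluorescence for binding of the Sf9 membrane reagent. Each polyreactivity label is drawn from the gate of origin.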

Sequence	polyreactivity (PSR sort gate)
QVQLVESGGVLVQAGGSLRLSCAASGRIFDDYAMGWYRQAPGKERELVAAIRSGGNSNYADSVKGRFTISRDNAKNTVYLQMNSLTPEETAVYYCAADEVRSAWRCSSPPDYDHWGQGTHVTVSS	low polyreactivity
QVQLVESGGGLVQAGGSLRISCAASGSTFLTNTLGWYRQAPGKERELVAAITLRGGRTYYADSVKGRFTISRDNAKNTVYLQMNSLKPEDTAVYYCNARNYYYPSDRDYWGQGTQVTVSS	low polyreactivity
QVQLVESGGGLVQAGGSLRLSCAASGLTFGANDMGWYRQAPGKERELVAAIDWSGGSTFYADSVKGRFTISRDNAKNTVYLQMNSLKPEDTAVYYCAALGFGYPYPEYDYWGQGTQVTVSS	low polyreactivity
QVQLVESGGGLVQAGGSLRLSCAASGRIFVSNAMGWYRQAPGKERELVAAISKSGGRTYYADSVKGRFTISRVNAKNTVYLQMNSLKPEDTAVYYCAARSRVSPRYDYWGQGTQVTVSS	high polyreactivity
QVQLVESGGGLVQAGGSLRLSCAASGRIFTNNAMGWYRPAPGKERELVAAISRSGGRTYYADSVKGRFTISRDNAKNTVYLQMNSLKPEDTAVYYCAAVHLYYGYNSPFTMDYWGQGTQVTVSS	high polyreactivity
QVQLVESGGGLVQAGGSLRLSCAASGSIFVRNAMGWYRQAPGKERELVAAITYSGSRTYYADSVKGRFTISRDNAKNTVYLQMNSLKPEDTEVYYCAKVRVLVDKWSTFYEYYYWGQGTQVTVSS	low polyreactivity
QVQHVESGGGLVQAGGSLRLSCAASGRIFPYYAMGWYRQAPGKEREFVAAITKRGGSTSYADSVKGRFTISRDNAKNTVYLQMNSLKPEDTAVYYCAAAGVYYGVRGTTYAYDYWGQGTQVTVSS	low polyreactivity
QVQLVESGGGLVQAGGSLRLSCAASGSTFGTYAMGWYRQAPGKERELVAAINTSGGSTTYADSVKGRFTISRDNAKNTVYLQMNSLKPEDTAVYYCAKDTTGDAYSEYDYWGQGTQVTVSS	low polyreactivity
HVQLVESGGGLVQAGGSLRLSCAASGSTFSGYAMGWYRQAPGKERELVAAISSSGGSTYYADSVKGRFTISRDNAKNTVYLQMNSLKPEDTAVYYCNADEYRGTSTEFEYWGQGTQVTVSS	high polyreactivity
QVQRVESGGGLVQAGGSLRLSCAASGRTFWTNAMGWYRQAPGTERELVAAISGSGGSTYFADSVKGRFTISRDNAKNTVYLQMNSLKPEDTAVYYCAAYSRFRYDYWGQGTQVTVSS	high polyreactivity
QVQLVESGGGLVQAGGSLRLSCAASGITFSGHAMGWYRQAPGKERELVAAITGSGGGTYYADSVMGRFTISRDNAKNTVYLQMNCLKPEDTAVYYCNADNYYYSGFDYWGQGTQVTVSS	low polyreactivity
QVQLEESGGGLVQAGGSLRLSCAGSGRIFIHYTMGWYRQAPGKERELVAAISTSGGSTYYADSVKGRFTISRDTAKNTVYLQMKSLKPEDTAGYYCAPVYRGYSGEGYYWGQGSQVTVSS	high polyreactivity
QVQLVESGGGLVQAGGSLRLSCAASGFTFRDYAMGWYRQAPGKERELVAVISDSGGRTYYADSVKGRFTISRDNAKNTVYLQMNSLKPEDTAVYYCAARGYRSGGGYNYWGQGTQVTVSS	high polyreactivity
QDQLVESGGGLVQAGGSLRLSCAASGNIFCYYVMGWYRQAPGKERELVAAITWSGGTTNYADSVKGRFTISRDNAKNTVYLQMNSLKPDDTAVYDCATDRYAYKLYDYWGQGTQVTVSS	low polyreactivity
QVQLVESGGGLVQAGGSLRLSCAASGITFWTYAMGWYRQAPGKERELVARISKSGARTFYADSVKGRFTLSRDNAKNTVYLQMNSLKPEDTAVYYCAADFRSNYDYWGQGTQVTVSS	high polyreactivity
QVHLVESGGGLVQAGGSLRLSCSASGSTFFPYAMGWYRQAPGKERELVAAITSGGRTKYADSVKGRFTISRDNAKNTVYLQMNSLKPEDNAVYYCAARGLIKEYGGPYRRFGYWGQGTKVTVSS	high polyreactivity

Sequence	polyreactivity (PSR sort gate)
QVQLVESGGGLVQAGGSLRLSCAASGSIFVVNGMGWYRQAPGKERELVAAITGDGTTYYADSVKGRFTISRDNAKNTVYLQMNSLKPEDSAVYYCAALFTPALSEYDYWGQGTQVTVSS	high polyreactivity
QVQLVESGGGLVQAGGSLRLSCAASGSTFDDYAMGWYRQAPGKERELVAAISSSGGRTYYADSVKGRFTISRDNAKNTVYLQMNSLKPEDTAVYYCNADSYRSRGRYEFGRFDYWGQGTQVTVSS	high polyreactivity
QVQLVESGGGLVQAGGSLRLSCAASGRTINRYAMGWYRQAPGKESELVASINKSGTSTYYADAVKGRFTISRDNAKNTVYLQMNCLKPEDTGVYYWKTRYFWCSTYDYWGQGTEVTVSS	high polyreactivity
QVQLVESGGGLVQAGGSLRLSCAASGFTFDYNAMGWYRQAPGKERELVASIDQSGGSTYYADSVKGRFTISRDNAKNTVYLQMNSLKPEDTAVYYCAAEGYYTSTYDLYDYYYWGQGTQVTVSS	low polyreactivity
QVQLVESGGGEVQAGGSLRLSCAASGIIFVDYVLGWYRQAPGTEMELVASIDGSGGSTNDADSVKGRFTISRDNAKNTVYLQLNRLKPEDTAVYYCTADNILYWSTLDYWGQGTHVTVSS	low polyreactivity
QVQLVESGGGLVQAGGSLRLSCDASGRTFLTNTMGWYRQAPGKERELVAAISSGGSTKYADSVKGRFTISRDNAKNTVYLQMNSLKPEDNAVYYCAATGWRYGYKYYYWGQGTQVTVSS	high polyreactivity
QVQLVESGGGLVQAGGSLRLSCAASGFTFKRYAMGWYRQAPGKERELVAAISYSGGSTYYADSVKGRYTISRDNAKNTVYLQMNSLKPEVTAVYYCNTGRRYYSYRRDYWGQGTQVTVSS	high polyreactivity
RVQLGESGGGLVQAGGSLRLSCAASGRTFVRYAMGWYRQAPGKERELVAAISYRGASTFYADSVKGRFTISRDNAKNTVYLQMNSLNPEDTAVYSCATDPRIRYQGNPYDYWGQGTQVTVSS	high polyreactivity
QVQLVESGGGLVQAGGSLRLSCAASGIIFGPNAMGWYRQAPGKERELVAGIDWSTDSTYYADSVKGRFTLSRDNAKNTVYLQMNSLKPEDTAVYYCAVAENKRFGSVGYYYWGQGTQVTVSS	low polyreactivity
QVQLVESGGGLVQAGGSLRLSCAASGSTFFLYAMGWYIQAPGKERELVAAISGSGGTTYYADSVKGRFTISRDNAKNTVYLQMNSLKPEDTAVYYCNKDYYPGSYDYWGQGTQVTVSS	low polyreactivity
QDQLVESGGGLVQAGGSLRLSCAASGLTFTYYAMGWYRQAPGKERELVAAMTWNGGRTYYADSVKGRFTISRDNAKNTVYLLMNSLKPEDTAVYYCNARYILSSSGFGYWRQGTQVTVSS	high polyreactivity
QVQLVESGGGLVQAGGSLRLSSAASGFTFRRYAMGWYRQAPGKERELVAAITNSAGSTYYSDSVKGRFTISRDNAKNTVYLQKNSLKPEDTAVYYCVALRSAGAYDYWGQGTQVTVSS	low polyreactivity
QVQLVESGGGVVQAGGSLRLSCAASGGIFRRNAMGWYRQAPGKERELVAAITRSGASTYDADSVKGRFTISRDNAKYTVYLQMNSLKPEDTAVYYCADAQLSAEYDYWGQGTQVTVTS	low polyreactivity
QVQLVESGGGLVQAGGSLRLSCAASGRIFGGYAMGWYRQAPGKERELVAAITSAGGTNYADSVKGRFTISRDNAKNTVYLQMNSLKPEDTAVYYCAALRDRDITVYYDTGRMYYWGQGTQVTVSS	low polyreactivity
QVQLQESGGGLVQAGGSLRLSCAASGSISRLDYMGWYRQASGKERELVAAIDNGRTTYYAESVKGRLTISRDNAKYTVYLQMNSLKPEDTAVYCCAAVRGRGGTHAYWGQGTQVTVSG	low polyreactivity
QVQLVESGGGLVQAGGSLRLSCAASGSIFSYNVIGWYRQAPGKEREMVATITVDGTSTYYADSVKGRFTISRDNAKNTVYLQMNSLKPEDTAVYDCAADETASFTQEYEEMEYWGQGTQVTVSS	low polyreactivity

— the nanobody polyreactivity screen of Harvey et al. (2022)
